B1: Armadillo repeat-containing protein 1 (Homo sapiens), Q9NVT9 (parent)
chain: MNSSTSTMSEEPDALSVVNQLRDLAADPLNRRAIVQDQGCLPGLILFMDHPNPPVVHSALLALRYLAECRANREKMKGELGMMLSLQNVIQKTTTPGETKLLASEIYDILQSSNMADGDSFNEMNSRRRKAQFFLGTTNKRAKTVVLHIDGLDDTSRRNLCEEALLKIKGVISFTFQMAVQRCVVRIRSDLKAEALASAIASTKVMKAQQVVKSESGEEMLVPFQDTPVEVEQNTELPDYLPEDESPTKEQDKAVSRVGSHPEGGASWLSTAANFLSRSFYW
B2: Coiled-coil domain-containing protein 68 (Homo sapiens), Q9H2F9 (parent)
chain: MTTVTVTTEIPPRDKMEDNSALYESTSAHIIEETEYVKKIRTTLQKIRTQMFKDEIRHDSTNHKLDAKHCGNLQQGSDSEMDPSCCSLDLLMKKIKGKDLQLLEMNKENEVLKIKLQASREAGAAALRNVAQRLFENYQTQSEEVRKKQEDSKQLLQVNKLEKEQKLKQHVENLNQVAEKLEEKHSQITELENLVQRMEKEKRTLLERKLSLENKLLQLKSSATYGKSCQDLQREISILQEQISHLQFVIHSQHQNLRSVIQEMEGLKNNLKEQDKRIENLREKVNILEAQNKELKTQVALSSETPRTKVSKAVSTSELKTEGVSPYLMLIRLRK
B3: Huntingtin-interacting protein 1 (Homo sapiens), O00291 (parent)
chain: MDRMASSMKQVPNPLPKVLSRRGVGAGLEAAERESFERTQTVSINKAINTQEVAVKEKHARTCILGTHHEKGAQTFWSVVNRLPLSSNAVLCWKFCHVFHKLLRDGHPNVLKDSLRYRNELSDMSRMWGHLSEGYGQLCSIYLKLLRTKMEYHTKNPRFPGNLQMSDRQLDEAGESDVNNFFQLTVEMFDYLECELNLFQTVFNSLDMSRSVSVTAAGQCRLAPLIQVILDCSHLYDYTVKLLFKLHSCLPADTLQGHRDRFMEQFTKLKDLFYRSSNLQYFKRLIQIPQLPENPPNFLRASALSEHISPVVVIPAEASSPDSEPVLEKDDLMDMDASQQNLFDNKFDDIFGSSFSSDPFNFNSQNGVNKDEKDHLIERLYREISGLKAQLENMKTESQRVVLQLKGHVSELEADLAEQQHLRQQAADDCEFLRAELDELRRQREDTEKAQRSLSEIERKAQANEQRYSKLKEKYSELVQNHADLLRKNAEVTKQVSMARQAQVDLEREKKELEDSLERISDQGQRKTQEQLEVLESLKQELATSQRELQVLQGSLETSAQSEANWAAEFAELEKERDSLVSGAAHREEELSALRKELQDTQLKLASTEESMCQLAKDQRKMLLVGSRKAAEQVIQDALNQLEEPPLISCAGSADHLLSTVTSISSCIEQLEKSWSQYLACPEDISGLLHSITLLAHLTSDAIAHGATTCLRAPPEPADSLTEACKQYGRETLAYLASLEEEGSLENADSTAMRNCLSKIKAIGEELLPRGLDIKQEELGDLVDKEMAATSAAIETATARIEEMLSKSRAGDTGVKLEVNERILGCCTSLMQAIQVLIVASKDLQREIVESGRGTASPKEFYAKNSRWTEGLISASKAVGWGATVMVDAADLVVQGRGKFEELMVCSHEIAASTAQLVAASKVKADKDSPNLAQLQQASRGVNQATAGVVASTISGKSQIEETDNMDFSSMTLTQIKRQEMDSQVRVLELENELQKERQKLGELRKKHYELAGVAEGWEEGTEASPPTLQEVVTEKE
partner: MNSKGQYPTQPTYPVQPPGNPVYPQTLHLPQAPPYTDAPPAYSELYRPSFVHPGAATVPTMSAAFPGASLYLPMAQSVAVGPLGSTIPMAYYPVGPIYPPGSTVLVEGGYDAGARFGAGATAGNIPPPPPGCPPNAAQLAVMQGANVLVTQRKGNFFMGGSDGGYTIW
B4: Spermatogenesis-associated protein 2 (Homo sapiens), Q9UM82 (parent)
chain: MGKPSSMDTKFKDDLFRKYVQFHESKVDTTTSRQRPGSDECLRVAASTLLSLHKVDPFYRFRLIQFYEVVESSLRSLSSSSLRALHGAFSMLETVGINLFLYPWKKEFRSIKTYTGPFVYYVKSTLLEEDIRAILSCMGYTPELGTAYKLRELVETLQVKMVSFELFLAKVECEQMLEIHSQVKDKGYSELDIVSERKSSAEDVRGCSDALRRRAEGREHLTASMSRVALQKSASERAAKDYYKPRVTKPSRSVDAYDSYWESRKPPLKASLSLRKEPVATDVGDDLKDEIIRPSPSLLTMASSPHGSPDVLPPASPSNGPALLRGTYFSTQDDVDLYTDSEPRATYRRQDALRPDVWLLRNDAHSLYHKRSPPAKESALSKCQSCGLSCSSSLCQRCDSLLTCPPASKPSAFPSKASTHDSLAHGASLREKYPGQTQGLDRLPHLHSKSKPSTTPTSRCGFCNRPGATNTCTQCSKVSCDACLSAYHYDPCYKKSELHKFMPNNQLNYKSTQLSHLVYR
partner: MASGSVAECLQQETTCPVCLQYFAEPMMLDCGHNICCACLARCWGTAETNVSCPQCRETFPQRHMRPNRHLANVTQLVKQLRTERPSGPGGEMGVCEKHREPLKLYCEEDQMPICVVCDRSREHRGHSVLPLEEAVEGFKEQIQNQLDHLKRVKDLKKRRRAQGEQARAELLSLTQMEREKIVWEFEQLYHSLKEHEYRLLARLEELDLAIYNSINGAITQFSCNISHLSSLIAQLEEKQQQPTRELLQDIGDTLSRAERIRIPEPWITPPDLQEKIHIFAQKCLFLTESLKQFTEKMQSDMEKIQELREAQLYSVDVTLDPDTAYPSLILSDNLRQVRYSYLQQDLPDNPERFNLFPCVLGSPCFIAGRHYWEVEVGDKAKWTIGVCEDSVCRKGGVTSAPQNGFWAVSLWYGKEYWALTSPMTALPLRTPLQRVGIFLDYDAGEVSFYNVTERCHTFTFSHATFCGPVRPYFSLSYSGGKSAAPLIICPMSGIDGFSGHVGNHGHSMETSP
B5: Chondroitin sulfate N-acetylgalactosaminyltransferase 2 (Homo sapiens), Q8N6G5 (parent)
chain: MPRRGLILHTRTHWLLLGLALLCSLVLFMYLLECAPQTDGNASLPGVVGENYGKEYYQALLQEQEEHYQTRATSLKRQIAQLKQELQEMSEKMRSLQERRNVGANGIGYQSNKEQAPSDLLEFLHSQIDKAEVSIGAKLPSEYGVIPFESFTLMKVFQLEMGLTRHPEEKPVRKDKRDELVEVIEAGLEVINNPDEDDEQEDEEGPLGEKLIFNENDFVEGYYRTERDKGTQYELFFKKADLTEYRHVTLFRPFGPLMKVKSEMIDITRSIINIIVPLAERTEAFVQFMQNFRDVCIHQDKKIHLTVVYFGKEGLSKVKSILESVTSESNFHNYTLVSLNEEFNRGRGLNVGARAWDKGEVLMFFCDVDIYFSAEFLNSCRLNAEPGKKVFYPVVFSLYNPAIVYANQEVPPPVEQQLVHKKDSGFWRDFGFGMTCQYRSDFLTIGGFDMEVKGWGGEDVHLYRKYLHGDLIVIRTPVPGLFHLWHEKRCADELTPEQYRMCIQSKAMNEASHSHLGMLVFREEIETHLHKQAYRTNSEAVG
B6: Coiled-coil domain-containing protein 42 (Homo sapiens), Q96M95 (parent)
chain: MSLGIMEEEDLAEYFRLQYGERLLQMLQKLPNVEGASESPSIWLLEKKKETEIMHQTMVQKKKMFQRRMETLNLRWEELGVKEAQLKAHIQKSEQFIQENDQKRIRAMKKANKERELKCQHMQELTKRKQEMVALRLEHQRLSAKLKDYYIFNKYLEKVVENSEFEEIHEVIARYKTLVSMRHDLMQSAQEGQEKIERAKARLARYMEEKDDEILQQNNELARLQMRFDRARSNVIFWESRWAHIQNTAAKKTLLLGTIKMATLNLFQIVSKHLKEVTEVALEDTHKQLDMIQQFIQDRSDIWAEVKKKEQQRVRI

Variants of: B1
Conditions: with mfr1l_human MTFR1L

Variant | effect of a mutation on the interaction
M83T | with no effect

Variants of: B2
Conditions: with tfp11_human TFIP11, Q9UBB9
Target sequence in this assay (Q9UBB9 whole entry): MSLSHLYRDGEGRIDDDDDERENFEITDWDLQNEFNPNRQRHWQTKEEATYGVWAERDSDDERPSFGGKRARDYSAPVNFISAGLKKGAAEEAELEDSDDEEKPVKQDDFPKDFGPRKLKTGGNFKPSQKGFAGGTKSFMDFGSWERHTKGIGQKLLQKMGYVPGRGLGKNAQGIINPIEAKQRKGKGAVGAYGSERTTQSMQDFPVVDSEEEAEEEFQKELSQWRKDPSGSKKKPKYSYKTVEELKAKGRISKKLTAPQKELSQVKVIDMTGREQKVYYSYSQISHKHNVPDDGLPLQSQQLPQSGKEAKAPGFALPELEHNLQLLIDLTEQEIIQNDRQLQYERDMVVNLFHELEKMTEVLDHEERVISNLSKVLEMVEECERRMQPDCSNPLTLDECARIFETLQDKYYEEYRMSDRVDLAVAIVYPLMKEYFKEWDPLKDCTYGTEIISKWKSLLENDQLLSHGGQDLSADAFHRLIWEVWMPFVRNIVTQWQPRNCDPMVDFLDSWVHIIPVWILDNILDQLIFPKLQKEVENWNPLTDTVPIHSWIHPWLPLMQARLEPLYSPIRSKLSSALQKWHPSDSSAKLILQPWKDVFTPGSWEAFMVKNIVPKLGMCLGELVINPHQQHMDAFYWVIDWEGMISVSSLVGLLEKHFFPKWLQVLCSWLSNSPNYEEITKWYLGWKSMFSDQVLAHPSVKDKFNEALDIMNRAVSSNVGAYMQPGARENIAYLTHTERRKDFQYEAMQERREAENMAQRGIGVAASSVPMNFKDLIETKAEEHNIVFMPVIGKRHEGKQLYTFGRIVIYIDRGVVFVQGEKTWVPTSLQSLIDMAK

Variant | effect of a mutation on the interaction
L100V | with no effect
D151G | with no effect
V249A | with no effect

Variants of: B3
Conditions: with dazp2_human DAZAP2, Q15038

Variant | effect of a mutation on the interaction
M263K | with no effect

Variants of: B4
Conditions: with tri27_human TRIM27, P14373

Variant | effect of a mutation on the interaction
L443F | disrupting interaction strength

Variants of: B5
Conditions: with BCL2L13, Q9BXK5
Chain of BCL2L13, Q9BXK5 (Q9BXK5 whole entry): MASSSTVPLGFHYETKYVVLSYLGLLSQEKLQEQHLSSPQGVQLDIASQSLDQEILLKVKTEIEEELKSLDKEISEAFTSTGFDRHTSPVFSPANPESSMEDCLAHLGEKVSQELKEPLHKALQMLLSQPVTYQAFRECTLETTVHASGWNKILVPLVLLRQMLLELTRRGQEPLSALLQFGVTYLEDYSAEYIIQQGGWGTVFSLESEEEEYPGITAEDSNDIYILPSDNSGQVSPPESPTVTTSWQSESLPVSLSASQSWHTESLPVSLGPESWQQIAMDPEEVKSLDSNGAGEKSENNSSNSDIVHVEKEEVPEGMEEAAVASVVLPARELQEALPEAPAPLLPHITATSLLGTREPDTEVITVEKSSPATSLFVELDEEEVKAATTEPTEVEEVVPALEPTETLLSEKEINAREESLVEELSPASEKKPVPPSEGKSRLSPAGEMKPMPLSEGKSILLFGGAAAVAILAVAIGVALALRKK

Variant | effect of a mutation on the interaction
P479S | with no effect

Variants of: B6
Conditions: with trim1_human MID2, Q9UJV3
Chain of trim1_human MID2, Q9UJV3 (Q9UJV3 whole entry): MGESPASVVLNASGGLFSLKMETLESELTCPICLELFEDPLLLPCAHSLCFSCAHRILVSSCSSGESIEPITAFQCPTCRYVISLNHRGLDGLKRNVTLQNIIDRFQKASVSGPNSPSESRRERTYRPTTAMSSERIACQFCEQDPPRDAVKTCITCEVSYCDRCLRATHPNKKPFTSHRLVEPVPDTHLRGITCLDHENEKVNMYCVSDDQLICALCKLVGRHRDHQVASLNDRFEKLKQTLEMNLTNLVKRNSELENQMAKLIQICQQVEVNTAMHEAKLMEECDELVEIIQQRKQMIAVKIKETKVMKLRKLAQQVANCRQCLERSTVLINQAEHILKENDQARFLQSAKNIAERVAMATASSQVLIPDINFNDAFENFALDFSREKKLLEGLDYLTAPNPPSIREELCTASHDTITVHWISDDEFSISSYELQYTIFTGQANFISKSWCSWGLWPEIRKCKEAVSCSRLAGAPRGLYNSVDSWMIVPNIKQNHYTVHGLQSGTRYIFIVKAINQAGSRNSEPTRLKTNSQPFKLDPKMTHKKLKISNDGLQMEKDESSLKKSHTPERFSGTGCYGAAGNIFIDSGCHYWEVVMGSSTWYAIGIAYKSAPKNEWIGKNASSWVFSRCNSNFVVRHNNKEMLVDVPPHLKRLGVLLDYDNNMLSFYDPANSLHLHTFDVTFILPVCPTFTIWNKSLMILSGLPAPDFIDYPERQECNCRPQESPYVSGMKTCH

Variant | effect of a mutation on the interaction
R128H | with no effect
A144T | with no effect

Variants of: B6
Conditions: with tfp11_human TFIP11, Q9UBB9
Target sequence in this assay (Q9UBB9 whole entry): as the sequence (Q9UBB9 whole entry) above

Variant | effect of a mutation on the interaction
R128H | with no effect
A144T | with no effect

From IntAct's records for PubMed 31515488
